The source of these data is publication PMC5362230, “MCPIP1, alias Regnase-1 binds and cleaves mRNA of C/EBPβ” (PLoS ONE, 2017).

The data set deals with the molecule itself. The data set can be described thus: native gel or EMSA; increasing amounts of purified protein (0-200 pmol) incubated with 2 pmol in vitro transcribed 3'UTR fragments of C/EBPβ mRNA; 25 mM Tris, 150 mM NaCl, 2.5 mM MgCl2, 2.5 mM DTT, 0.5 mM EDTA, 0.025 mM ZnCl2, pH 8.3; on ice 20 min; 0.8% agarose gel in TAE; oligomers read from heavier protein-RNA complexes.

B1: Full length human MCPIP1 (D141N) recombinant protein (enzyme, UniProt Q5D1E8 1-599, looked up)
chain: MSGPCGEKPVLEASPTMSLWEFEDSHSRQGTPRPGQELAAEEASALELQMKVDFFRKLGYSSTEIHSVLQKLGVQADTNTVLGELVKHGTATERERQTSPDPCPQLPLVPRGGGTPKAPNLEPPLPEEEKEGSDLRPVVINGSNVAMSHGNKEVFSCRGILLAVNWFLERGHTDITVFVPSWRKEQPRPDVPITDQHILRELEKKKILVFTPSRRVGGKRVVCYDDRFIVKLAYESDGIVVSNDTYRDLQGERQEWKRFIEERLLMYSFVNDKFMPPDDPLGRHGPSLDNFLRKKPLTLEHRKQPCPYGRKCTYGIKCRFFHPERPSCPQRSVADELRANALLSPPRAPSKDKNGRRPSPSSQSSSLLTESEQCSLDGKKLGAQASPGSRQEGLTQTYAPSGRSLAPSGGSGSSFGPTDWLPQTLDSLPYVSQDCLDSGIGSLESQMSELWGVRGGGPGEPGPPRAPYTGYSPYGSELPATAAFSAFGRAMGAGHFSVPADYPPAPPAFPPREYWSEPYPLPPPTSVLQEPPVQSPGAGRSPWGRAGSLAKEQASVYTKLCGVFPPHLVEAVMGRFPQLLDPQQLAAEILSYKSQHPSE
notes: Monocyte chemoattractant protein-1-induced protein 1 (MCPIP1, Regnase-1), human, full length; point mutation D141N in the PIN domain abolishes RNase activity; also called Regnase-1 D141N; source: recombinant, purified
As to B1, the binding result is listed as “binds”.
